± gives the standard deviation of the averaged measurements.
Assay: total protein half-life in vivo (active degradation + dilution); higher = more stable protein
[1] = E. coli NCM3722 delta-clpP delta-lon delta-hslV, growth: N-lim chemostat, doubling time 6 h
[2] = E. coli NCM3722 delta-clpP, growth: N-lim chemostat, doubling time 6 h
[3] = E. coli NCM3722 delta-hslV, growth: N-lim chemostat, doubling time 6 h
[4] = E. coli NCM3722 delta-smpB, growth: N-lim chemostat, doubling time 6 h
[5] = wild type E. coli NCM3722, growth: C-lim chemostat, doubling time 12 h
[6] = wild type E. coli NCM3722, growth: N-lim chemostat, doubling time 6 h
[7] = wild type E. coli NCM3722, growth: N-lim chemostat, doubling time 12 h
[8] = wild type E. coli NCM3722, growth: P-lim chemostat, doubling time 6 h
[9] = wild type E. coli NCM3722, growth: P-lim chemostat, doubling time 12 h
[10] = E. coli NCM3722 delta-lon, growth: N-lim chemostat, doubling time 6 h
[11] = wild type E. coli NCM3722, growth: C-lim chemostat, doubling time 6 h
[12] = wild type E. coli NCM3722, growth: C-lim chemostat, doubling time 3 h

Sequence	total protein half-life in vivo [1] [h]	total protein half-life in vivo [2] [h]	total protein half-life in vivo [3] [h]	total protein half-life in vivo [4] [h]	total protein half-life in vivo [5] [h]	total protein half-life in vivo [6] [h]	total protein half-life in vivo [7] [h]	total protein half-life in vivo [8] [h]	total protein half-life in vivo [9] [h]	total protein half-life in vivo [10] [h]	total protein half-life in vivo [11] [h]	total protein half-life in vivo [12] [h]
MAENQSTVENAKEKLDRWLKDGITTPGGKLPSERELGELLGIKRMTLRQALLNLEAESKIFRKDRKGWFVTQPRFNYSPELSASFQRAAIEQGREPSWGFTEKNRTSDIPETLAPLIAVTPSTELYRITGWGALEGHKVFYHETYINPEVAPGFIEQLENHSFSAVWEKCYQKETVVKKLIFKPVRMPGDISKYLGGSAGMPAILIEKHRADQQGNIVQIDIEYWRFEAVDLIINL [P0ACM9]	6.16 ± 0.15	5.99 ± 0.32	5.13 ± 0.17	4.95	13.2 ± 3.2	5.84 ± 0.19	9.06 ± 1	5.01 ± 1.8	9.28	–	–	–
MNVNSSSNRGEAILAALKTQFPGAVLDEERQTPEQVTITVKINLLPDVVQYLYYQHDGWLPVLFGNDERTLNGHYAVYYALSMEGAEKCWIVVKALVDADSREFPSVTPRVPAAVWGEREIRDMYGLIPVGLPDQRRLVLPDDWPEDMHPLRKDAMDYRLRPEPTTDSETYPFINEGNSDARVIPVGPLHITSDEPGHFRLFVDGEQIVDADYRLFYVHRGMEKLAETRMGYNEVTFLSDRVCGICGFAHSVAYTNSVENALGIEVPQRAHTIRSILLEVERLHSHLLNLGLSCHFVGFDTGFMQFFRVREKSMTMAELLIGSRKTYGLNLIGGVRRDILKEQRLQTLKLVREMRADVSELVEMLLATPNMEQRTQGIGILDRQIARDLRFDHPYADYGNIPKTLFTFTGGDVFSRVMVRVKETFDSLAMLEFALDNMPDTPLLTEGFSYKPHAFALGFVEAPRGEDVHWSMLGDNQKLFRWRCRAATYANWPVLRYMLRGNTVSDAPLIIGSLDPCYSCTDRVTLVDVRKRQSKTVPYKEIERYGIDRNRSPLK	7.09	–	5.63	–	–	5.27	–	–	–	–	–	–
MKPMHIAMALLSAAMFFVLAGVFMGVQLELDGTKLVVDTASDVRWQWVFIGTAVVFFFQLLRPAFQKGLKSVSGPKFILPAIDGSTVKQKLFLVALLVLAVAWPFMVSRGTVDIATLTMIYIILGLGLNVVVGLSGLLVLGYGGFYAIGAYTFALLNHYYGLGFWTCLPIAGLMAAAAGFLLGFPVLRLRGDYLAIVTLGFGEIVRILLLNNTEITGGPNGISQIPKPTLFGLEFSRTAREGGWDTFSNFFGLKYDPSDRVIFLYLVALLLVVLSLFVINRLLRMPLGRAWEALREDEIACRSLGLSPRRIKLTAFTISAAFAGFAGTLFAARQGFVSPESFTFAESAFVLAIVVLGGMGSQFAVILAAILLVVSRELMRDFNEYSMLMLGGLMVLMMIWRPQGLLPMTRPQLKLKNGAAKGEQA	5.59 ± 2.4	6.22	5.84 ± 0.34	5.92 ± 1.1	10.7 ± 1.2	–	12.2	6.09 ± 0.58	10.7 ± 0.3	5.83 ± 1.7	5.79 ± 0.64	–
MKVKVLSLLVPALLVAGAANAAEVYNKDGNKLDLYGKVDGLHYFSDNKDVDGDQTYMRLGFKGETQVTDQLTGYGQWEYQIQGNSAENENNSWTRVAFAGLKFQDVGSFDYGRNYGVVYDVTSWTDVLPEFGGDTYGSDNFMQQRGNGFATYRNTDFFGLVDGLNFAVQYQGKNGNPSGEGFTSGVTNNGRDALRQNGDGVGGSITYDYEGFGIGGAISSSKRTDAQNTAAYIGNGDRAETYTGGLKYDANNIYLAAQYTQTYNATRVGSLGWANKAQNFEAVAQYQFDFGLRPSLAYLQSKGKNLGRGYDDEDILKYVDVGATYYFNKNMSTYVDYKINLLDDNQFTRDAGINTDNIVALGLVYQF	7.5928 ± 0.0042	6.32 ± 1.1	6.59 ± 0.66	6.24 ± 0.51	11.6 ± 2	5.94 ± 0.54	12.4 ± 1.4	6.7 ± 0.53	13.9 ± 2.6	7.2 ± 0.57	6.64 ± 0.99	3.37 ± 0.1
MLRIAKEALTFDDVLLVPAHSTVLPNTADLSTQLTKTIRLNIPMLSAAMDTVTEARLAIALAQEGGIGFIHKNMSIERQAEEVRRVKKHESGVVTDPQTVLPTTTLREVKELTERNGFAGYPVVTEENELVGIITGRDVRFVTDLNQPVSVYMTPKERLVTVREGEAREVVLAKMHEKRVEKALVVDDEFHLIGMITVKDFQKAERKPNACKDEQGRLRVGAAVGAGAGNEERVDALVAAGVDVLLIDSSHGHSEGVLQRIRETRAKYPDLQIIGGNVATAAGARALAEAGCSAVKVGIGPGSICTTRIVTGVGVPQITAVADAVEALEGTGIPVIADGGIRFSGDIAKAIAAGASAVMVGSMLAGTEESPGEIELYQGRSYKSYRGMGSLGAMSKGSSDRYFQSDNAADKLVPEGIEGRVAYKGRLKEIIHQQMGGLRSCMGLTGCGTIDELRTKAEFVRISGAGIQESHVHDVTITKESPNYRLGS [P0ADG7]	5.001 ± 0.0064	3.78 ± 0.047	4.06 ± 0.047	3.95 ± 0.36	11.2 ± 1.9	4.29 ± 0.39	6.68 ± 0.18	6.02 ± 0.29	12.5 ± 0.63	4.91 ± 0.38	5.76 ± 0.073	3.01 ± 0.44
MAIDENKQKALAAALGQIEKQFGKGSIMRLGEDRSMDVETISTGSLSLDIALGAGGLPMGRIVEIYGPESSGKTTLTLQVIAAAQREGKTCAFIDAEHALDPIYARKLGVDIDNLLCSQPDTGEQALEICDALARSGAVDVIVVDSVAALTPKAEIEGEIGDSHMGLAARMMSQAMRKLAGNLKQSNTLLIFINQIRMKIGVMFGNPETTTGGNALKFYASVRLDIRRIGAVKEGENVVGSETRVKVVKNKIAAPFKQAEFQILYGEGINFYGELVDLGVKEKLIEKAGAWYSYKGEKIGQGKANATAWLKDNPETAKEIEKKVRELLLSNPNSTPDFSVDDSEGVAETNEDF [P0A7G6]	6.6 ± 1	5.85 ± 0.55	3.37 ± 0.057	3.32 ± 0.036	11.7 ± 4.1	3.4281 ± 0.0021	4.94 ± 0.44	4.77 ± 0.2	9.63 ± 0.48	3.272 ± 0.025	4.82 ± 0.084	2.86 ± 0.031
MNNDNTDYVSNESGTLSRLFKLPQHGTTVRTELIAGMTTFLTMVYIVFVNPQILGAAQMDPKVVFVTTCLIAGIGSIAMGIFANLPVALAPAMGLNAFFAFVVVGAMGISWQTGMGAIFWGAVGLFLLTLFRIRYWMISNIPLSLRIGITSGIGLFIALMGLKNTGVIVANKDTLVMIGDLSSHGVLLGILGFFIITVLSSRHFHAAVLVSIVVTSCCGLFFGDVHFSGVYSIPPDISGVIGEVDLSGALTLELAGIIFSFMLINLFDSSGTLIGVTDKAGLIDGNGKFPNMNKALYVDSVSSVAGAFIGTSSVTAYIESTSGVAVGGRTGLTAVVVGVMFLLVMFFSPLVAIVPPYATAGALIFVGVLMTSSLARVNWDDFTESVPAFITTVMMPFTFSITEGIALGFMSYCIMKVCTGRWRDLNLCVVVVAALFALKIILVD	–	–	–	–	–	–	–	–	–	–	5.84	3.27
MAGLPNSSNALQQWHHLFEAEGTKRSPQAQQHLQQLLRTGLPTRKHENWKYTPLEGLINSQFVSIAGEISPQQRDALALTLDSVRLVFVDGRYVPALSDATEGSGYEVSINDDRQGLPDAIQAEVFLHLTESLAQSVTHIAVKRGQRPAKPLLLMHITQGVAGEEVNTAHYRHHLDLAEGAEATVIEHFVSLNDARHFTGARFTINVAANAHLQHIKLAFENPLSHHFAHNDLLLAEDATAFSHSFLLGGAVLRHNTSTQLNGENSTLRINSLAMPVKNEVCDTRTWLEHNKGFCNSRQLHKTIVSDKGRAVFNGLINVAQHAIKTDGQMTNNNLLMGKLAEVDTKPQLEIYADDVKCSHGATVGRIDDEQIFYLRSRGINQQDAQQMIIYAFAAELTEALRDEGLKQQVLARIGQRLPGGAR	4.76 ± 0.4	3.22 ± 0.11	2.1 ± 0.063	1.99 ± 0.24	5.81 ± 0.08	2.37 ± 0.38	2.817 ± 0.0043	3.2 ± 0.23	6.04 ± 0.41	3.45 ± 1.1	3.91 ± 0.52	2.2 ± 0.22
MSESVQSNSAVLVHFTLKLDDGTTAESTRNNGKPALFRLGDASLSEGLEQHLLGLKVGDKTTFSLEPDAAFGVPSPDLIQYFSRREFMDAGEPEIGAIMLFTAMDGSEMPGVIREINGDSITVDFNHPLAGQTVHFDIEVLEIDPALEA [P0AEM0]	4.8	4.79	–	3.85 ± 0.14	9.21 ± 1.6	4.44	5.91	5.49 ± 0.13	11.6	5.05	4.78 ± 0.094	2.84
MNKIFSSHVMPFRALIDACWKEKYTAARFTRDLIAGITVGIIAIPLAMALAIGSGVAPQYGLYTAAVAGIVIALTGGSRFSVSGPTAAFVVILYPVSQQFGLAGLLVATLLSGIFLILMGLARFGRLIEYIPVSVTLGFTSGIGITIGTMQIKDFLGLQMAHVPEHYLQKVGALFMALPTINVGDAAIGIVTLGILVFWPRLGIRLPGHLPALLAGCAVMGIVNLLGGHVATIGSQFHYVLADGSQGNGIPQLLPQLVLPWDLPNSEFTLTWDSIRTLLPAAFSMAMLGAIESLLCAVVLDGMTGTKHKANSELVGQGLGNIIAPFFGGITATAAIARSAANVRAGATSPISAVIHSILVILALLVLAPLLSWLPLSAMAALLLMVAWNMSEAHKVVDLLRHAPKDDIIVMLLCMSLTVLFDMVIAISVGIVLASLLFMRRIARMTRLAPVVVDVPDDVLVLRVIGPLFFAAAEGLFTDLESRLEGKRIVILKWDAVPVLDAGGLDAFQRFVKRLPEGCELRVCNVEFQPLRTMARAGIQPIPGRLAFFPNRRAAMADL [P0AFR2]	5.99 ± 0.062	6.21 ± 0.72	5.51	5.82 ± 0.46	> 16	6.43 ± 1.8	> 16	–	7.77	5.97 ± 0.73	6.39 ± 0.93	1.95
MNTIVFVEDDAEVGSLIAAYLAKHDMQVTVEPRGDQAEETILRENPDLVLLDIMLPGKDGMTICRDLRAKWSGPIVLLTSLDSDMNHILALEMGACDYILKTTPPAVLLARLRLHLRQNEQATLTKGLQETSLTPYKALHFGTLTIDPINRVVTLANTEISLSTADFELLWELATHAGQIMDRDALLKNLRGVSYDGLDRSVDVAISRLRKKLLDNAAEPYRIKTVRNKGYLFAPHAWE	5.2 ± 1.1	4.29 ± 0.89	3.1 ± 0.46	3.58 ± 0.22	7.3 ± 0.64	3.662 ± 0.028	5.27 ± 0.083	4.82 ± 0.53	7.92 ± 0.17	3.95 ± 0.079	5.03 ± 0.43	3.05 ± 0.78
MSKVRLAIIGNGMVGHRFIEDLLDKSDAANFDITVFCEEPRIAYDRVHLSSYFSHHTAEELSLVREGFYEKHGIKVLVGERAITINRQEKVIHSSAGRTVFYDKLIMATGSYPWIPPIKGSDTQDCFVYRTIEDLNAIESCARRSKRGAVVGGGLLGLEAAGALKNLGIETHVIEFAPMLMAEQLDQMGGEQLRRKIESMGVRVHTSKNTLEIVQEGVEARKTMRFADGSELEVDFIVFSTGIRPRDKLATQCGLDVAPRGGIVINDSCQTSDPDIYAIGECASWNNRVFGLVAPGYKMAQVAVDHILGSENAFEGADLSAKLKLLGVDVGGIGDAHGRTPGARSYVYLDESKEIYKRLIVSEDNKTLLGAVLVGDTSDYGNLLQLVLNAIELPENPDSLILPAHSGSGKPSIGVDKLPDSAQICSCFDVTKGDLIAAINKGCHTVAALKAETKAGTGCGGCIPLVTQVLNAELAKQGIEVNNNLCEHFAYSRQELFHLIRVEGIKTFEELLAKHGKGYGCEVCKPTVGSLLASCWNEYILKPEHTPLQDSNDNFLANIQKDGTYSVIPRSPGGEITPEGLMAVGRIAREFNLYTKITGSQRLAMFGAQKDDLPEIWRQLIEAGFETGHAYAKALRMAKTCVGSTWCRYGVGDSVGLGVELENRYKGIRTPHKMKFGVSGCTRECSEAQGKDVGIIATEKGWNLYVCGNGGMKPRHADLLAADIDRETLIKYLDRFMMFYIRTADKLTRTAPWLENLEGGIDYLKAVIIDDKLGLNAHLEEEMARLREAVLCEWTETVNTPSAQTRFKHFINSDKRDPNVQMVPEREQHRPATPYERIPVTLVEDNA	6.11	5.71	–	–	–	–	6.72	–	–	–	–	–

Reference: the supplement of paper PMC11246515
